Normalized MFI data for one substance are collected here from US20120308566A1.

The target of experiment [1] is huIL-17RA-FLAG-polyHis (human) (UniProt Q96F46). As to the kind of experiment: multiplexed binning, huIgG row/col I (IL-17RA on AMH22/AML22 bead).
The target is the same in experiment [2]. Briefly: multiplexed binning, huIgG row/col K (IL-17RA on AMH14/AML14 bead).
For experiment [3] the target is unchanged. As to the kind of experiment: multiplexed binning, huIgG row/col L (IL-17RA on AMH19/AML19 bead).

On to huIgG (antibody), for which the results for the normalized MFI in experiment [1], in experiment [2] and in experiment [3] were -72, -235 and -36, respectively.
